Source: patent EP4722253A1 (dated 2026)
Residue numbers refer to the chain shown, from its start.

T1: FcγRIIa (UniProt P12318 34-217)
T1 sequence (looked up): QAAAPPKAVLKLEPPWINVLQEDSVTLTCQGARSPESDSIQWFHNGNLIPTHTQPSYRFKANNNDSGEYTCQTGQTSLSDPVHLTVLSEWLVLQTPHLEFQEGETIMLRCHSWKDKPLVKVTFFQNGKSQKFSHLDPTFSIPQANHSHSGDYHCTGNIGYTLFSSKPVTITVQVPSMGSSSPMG

B1: Q-SBL-101 (bispecific antibody, human IgG1, kappa)
heavy 1: not shown
heavy 2: EVQLVESGGGLVQPGGSLRLSCAASGYTFTNYGMNWVRQAPGKGLEWVGWINTYTGEPTYAADFKRRFTFSLDTSKSTAYLQMNSLRAEDTAVYYCAKYPHYYGSSHWYFDVWGQGTLVTVSSASTKGPSVFPLAPSSKSTSGGTAALGCLVKDYFPEPVTVSWNSGALTSGVHTFPAVLQSSGLYSLSSVVTVPSSSLGTQTYICNVNHKPSNTKVDKKVEPKSCDKTHTCPPCPAPELLGGPSVFLFPPKPKDTLMISRTPEVTCVVVDVSHEDPEVKFNWYVDGVEVHNAKTKPREEQYNSTYRVVSVLTVLHQDWLNGKEYKCKVSNKALPAPIEKTISKAKGQPREPQVCTLPPSRREMTKNQVSLWCLVKGFYPSDIAVEWESNGQPENNYKTTPPVLDSDGSFFLYSKLTVDKSRWQQGNVFSCSVMHEALHNHYTQKSLSLSPGK
light 1: not shown
light 2: not shown
notes: copies: 1 + 1 + 1 + 1
B2: Q-SBL-117 (bispecific antibody, human IgG1, kappa)
heavy 1: not shown
heavy 2: B1 heavy 2 with R362K
light 1: not shown
light 2: not shown
notes: copies: 1 + 1 + 1 + 1
B3: Q-SBL-131 (bispecific antibody, human IgG1, kappa)
heavy 1: not shown
heavy 2: B1 heavy 2 with R362E, D405F
light 1: not shown
light 2: not shown
notes: copies: 1 + 1 + 1 + 1
B4: Q-SBL-127 (bispecific antibody, human IgG1, kappa)
heavy 1: not shown
heavy 2: B1 heavy 2 with R362E, D405F
light 1: not shown
light 2: not shown
notes: copies: 1 + 1 + 1 + 1
B5: Q-SBL-115 (bispecific antibody, human IgG1, kappa)
heavy 1: not shown
heavy 2: B1 heavy 2 with R362E, E363R
light 1: not shown
light 2: not shown
notes: copies: 1 + 1 + 1 + 1
B6: Q-SBL-111 (bispecific antibody, human IgG1, kappa)
heavy 1: not shown
heavy 2: B1 heavy 2
light 1: not shown
light 2: not shown
notes: copies: 1 + 1 + 1 + 1
B7: Q-SBL-130 (bispecific antibody, human IgG1, kappa)
heavy 1: not shown
heavy 2: B1 heavy 2 with R362E, D405F
light 1: not shown
light 2: not shown
notes: copies: 1 + 1 + 1 + 1
B8: Q-SBL-116 (bispecific antibody, human IgG1, kappa)
heavy 1: not shown
heavy 2: B1 heavy 2 with R362K
light 1: not shown
light 2: not shown
notes: copies: 1 + 1 + 1 + 1
B9: Q-SBL-137 (bispecific antibody, human IgG1, kappa)
heavy 1: not shown
heavy 2: B1 heavy 2 with R362E, K415S
light 1: not shown
light 2: not shown
notes: copies: 1 + 1 + 1 + 1
B10: Q-SBL-103 (bispecific antibody, human IgG1, kappa)
heavy 1: not shown
heavy 2: B1 heavy 2 with R362E, E363R
light 1: not shown
light 2: not shown
notes: copies: 1 + 1 + 1 + 1
B11: Q-SBL-109 (bispecific antibody, human IgG1, kappa)
heavy 1: not shown
heavy 2: B1 heavy 2
light 1: not shown
light 2: not shown
notes: copies: 1 + 1 + 1 + 1
B12: Q-SBL-102 (bispecific antibody, human IgG1, kappa)
heavy 1: not shown
heavy 2: B1 heavy 2 with R362E, D405H
light 1: not shown
light 2: not shown
notes: copies: 1 + 1 + 1 + 1
B13: Q-SBL-114 (bispecific antibody, human IgG1, kappa)
heavy 1: not shown
heavy 2: B1 heavy 2 with R362E, D405H
light 1: not shown
light 2: not shown
notes: copies: 1 + 1 + 1 + 1
B14: Q-SBL-136 (bispecific antibody, human IgG1, kappa)
heavy 1: not shown
heavy 2: B1 heavy 2 with R362E, K415T
light 1: not shown
light 2: not shown
notes: copies: 1 + 1 + 1 + 1
B15: Q-SBL-105 (bispecific antibody, human IgG1, kappa)
heavy 1: not shown
heavy 2: B1 heavy 2 with E363R
light 1: not shown
light 2: not shown
notes: copies: 1 + 1 + 1 + 1
B16: Q-SBL-135 (bispecific antibody, human IgG1, kappa)
heavy 1: not shown
heavy 2: B1 heavy 2 with R362E, K415V
light 1: not shown
light 2: not shown
notes: copies: 1 + 1 + 1 + 1
B17: Q-SBL-104 (bispecific antibody, human IgG1, kappa)
heavy 1: not shown
heavy 2: B1 heavy 2 with D405H
light 1: not shown
light 2: not shown
notes: copies: 1 + 1 + 1 + 1
B18: Q-SBL-106 (bispecific antibody, human IgG1, kappa)
heavy 1: not shown
heavy 2: B1 heavy 2 with R362E, E363R, D405H
light 1: not shown
light 2: not shown
notes: copies: 1 + 1 + 1 + 1

These binders were tested against T2, C1q, complement component 1q (UniProt P02745 23-245; P02746 28-253; P02747 29-245) (assay: BLI (Octet HTX), antibody on FAB2G biosensor, C1q in solution).
T2 construct: also called Clq
T2 sequence (P02745 23-245 limits assumed, chain 1 of 3): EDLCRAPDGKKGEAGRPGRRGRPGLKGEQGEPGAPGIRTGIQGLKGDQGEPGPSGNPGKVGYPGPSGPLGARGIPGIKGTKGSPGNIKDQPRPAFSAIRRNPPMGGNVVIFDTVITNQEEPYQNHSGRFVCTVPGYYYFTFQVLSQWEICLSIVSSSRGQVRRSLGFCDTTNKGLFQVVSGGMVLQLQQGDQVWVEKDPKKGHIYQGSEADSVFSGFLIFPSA
T2 sequence (P02746 28-253 limits assumed, chain 2 of 3): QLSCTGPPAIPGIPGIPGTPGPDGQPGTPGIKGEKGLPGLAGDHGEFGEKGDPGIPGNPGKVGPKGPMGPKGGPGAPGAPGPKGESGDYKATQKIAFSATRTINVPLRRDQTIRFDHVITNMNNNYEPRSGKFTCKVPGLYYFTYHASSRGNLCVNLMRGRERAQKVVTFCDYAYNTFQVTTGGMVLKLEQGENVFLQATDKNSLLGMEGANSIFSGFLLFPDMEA
T2 sequence (P02747 29-245 limits assumed, chain 3 of 3): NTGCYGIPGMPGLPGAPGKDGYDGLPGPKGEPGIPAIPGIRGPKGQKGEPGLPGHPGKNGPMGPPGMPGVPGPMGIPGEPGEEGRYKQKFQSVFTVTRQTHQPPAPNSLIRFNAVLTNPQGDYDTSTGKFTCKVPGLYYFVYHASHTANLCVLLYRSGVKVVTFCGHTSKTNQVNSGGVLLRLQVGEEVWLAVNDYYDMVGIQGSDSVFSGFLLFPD

Row | Binder | Kd [nM]
1 | B1 | 36
2 | B2 | 40
3 | B3 | 16
4 | B4 | 18
5 | B5 | 18
6 | B6 | 30
7 | B7 | 17
8 | B8 | 33
9 | B9 | 24
10 | B10 | 40
11 | B11 | 28
12 | B12 | 40
13 | B13 | 18

The binders below were run against T3, FcγRIIIa (UniProt P08637 17-208) (assay: BLI (Octet HTX), antibody on FAB2G biosensor, FcγRIIIa in solution).
T3 construct: also called FcyRIIIa
T3 sequence (P08637 17-208 limits assumed): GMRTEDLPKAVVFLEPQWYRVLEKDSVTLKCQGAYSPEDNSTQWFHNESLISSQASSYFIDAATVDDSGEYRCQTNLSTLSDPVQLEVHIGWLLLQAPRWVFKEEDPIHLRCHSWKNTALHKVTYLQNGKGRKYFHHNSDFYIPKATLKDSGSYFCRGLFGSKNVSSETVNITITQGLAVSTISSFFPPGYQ

Row | Binder | Kd [nM]
14 | B1 | 500
15 | B2 | 360
16 | B3 | 330
17 | B4 | 230
18 | B5 | 290
19 | B14 | 230
20 | B6 | 490
21 | B7 | 290
22 | B8 | 370
23 | B15 | 430
24 | B9 | 380
25 | B10 | 220
26 | B16 | 300
27 | B11 | 340
28 | B12 | 420
29 | B13 | 230

Each binder was assayed against T4, FcRn (UniProt P55899 24-297) (assay: BLI (Octet HTX), antibody on FAB2G biosensor, FcRn in solution, pH 6.0).
T4 construct: also called neonatal Fc receptor
T4 sequence (P55899 24-297 limits assumed, form in doubt): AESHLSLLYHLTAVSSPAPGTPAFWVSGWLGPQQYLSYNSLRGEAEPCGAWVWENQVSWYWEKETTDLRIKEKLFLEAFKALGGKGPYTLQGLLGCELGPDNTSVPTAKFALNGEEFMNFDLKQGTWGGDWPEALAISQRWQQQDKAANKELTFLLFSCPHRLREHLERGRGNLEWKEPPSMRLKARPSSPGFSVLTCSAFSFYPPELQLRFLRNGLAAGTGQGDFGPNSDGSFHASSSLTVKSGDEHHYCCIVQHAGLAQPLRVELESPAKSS

Row | Binder | Kd [nM]
30 | B1 | 730
31 | B3 | 670
32 | B17 | 680
33 | B4 | 750
34 | B5 | 690
35 | B14 | 620
36 | B6 | 690
37 | B18 | 680
38 | B7 | 740
39 | B8 | 650
40 | B15 | 710
41 | B9 | 580
42 | B16 | 650
43 | B11 | 640
44 | B12 | 710

Each binder was assayed against T1, FcγRIIa (assay: BLI (Octet HTX), antibody on FAB2G biosensor, FcγRIIa in solution).

Row | Binder | Kd [nM]
45 | B1 | 2460
46 | B2 | 2550
47 | B3 | 1620
48 | B17 | 1870
49 | B4 | 1630
50 | B5 | 1970
51 | B14 | 1970
52 | B6 | 2040
53 | B7 | 1720
54 | B8 | 2340
55 | B15 | 1910
56 | B9 | 2120
57 | B10 | 1130
58 | B16 | 1380
59 | B11 | 2200
60 | B12 | 1700
61 | B13 | 1860
